Laboratory results reported in PMC6538526.
Like-named read-outs stand apart in the source and are kept apart here.

Legend:
[1] = biological target: GST-BRCA2 fragment B2-9 (amino acids 3189–3418) (UniProt P51587); experiment: pull-down
[2] = biological target: GST-BRCA2 fragment B2-9 (amino acids 3189–3418) (UniProt P51587); experiment: pull-down; remark: listed apart in the source

Sequence of UniProt P51587 (P51587 3189-3418): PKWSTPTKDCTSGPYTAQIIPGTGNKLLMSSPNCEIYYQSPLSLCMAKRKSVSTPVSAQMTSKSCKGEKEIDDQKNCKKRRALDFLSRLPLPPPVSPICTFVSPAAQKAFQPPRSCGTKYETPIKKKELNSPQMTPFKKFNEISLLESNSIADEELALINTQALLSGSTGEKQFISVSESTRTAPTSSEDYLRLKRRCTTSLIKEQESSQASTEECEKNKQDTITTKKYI

IC50 [1]: 28.5 nM | IC50 [2]: 29.5 nM
Substance: purified cyclin A (from UniProt P20248 1-432) (natural protein)
